Measurements taken from publication doi:10.1101/2019.12.15.877159.

Experiments:
Test in all cases: non-reducing SDS-PAGE and western blot
[1] = target: transmembrane peptide of sDscamα (Mesobuthus martensii)
[2] = target: transmembrane peptide of sDscamβ2 (Mesobuthus martensii)
[3] = target: transmembrane peptide of sDscamβ3 (Mesobuthus martensii)
[4] = target: transmembrane peptide of sDscamβ4 (Mesobuthus martensii)
[5] = target: transmembrane peptide of sDscamβ5 (Mesobuthus martensii)
[6] = target: transmembrane peptide of sDscamβ6 (Mesobuthus martensii)

Substance “transmembrane peptide of sDscamα (domain or fragment)” has a stoichiometry N [1] of 2.
With “transmembrane peptide of sDscamβ2 (domain or fragment)” the stoichiometry N [2] was 2.
Work on “transmembrane peptide of sDscamβ3 (domain or fragment)” yielded a stoichiometry N [3] of 2.
“transmembrane peptide of sDscamβ4 (domain or fragment)” was tested, and the percent of dimers [4] was less than 10% and the stoichiometry N [4] was 2.
For “transmembrane peptide of sDscamβ5 (domain or fragment)”, the percent of dimers [5] was less than 10% and the stoichiometry N [5] was 2.
Substance “transmembrane peptide of sDscamβ6 (domain or fragment)” has a stoichiometry N [6] of 2.
